Test results reported in US20150344570A1 (published 2015).
Where a chain is given by its changes, count along the chain named. Names and notes keep the numbering of the source.

B1: H240-Kn184/H240-Hl068/L73-k0 (antibody, human IgG1, kappa)
heavy 1: QDQLVQSGAEVKKPGASVKVSCKASGFNIKDTYIQWVRQAPGQGLEWMGRIDPLRKQTKYREKFEGRVTITADTSTNTAYMELSSLRSEDTAVYYCVRSGREFDYWGQGTLVTVSSASTKGPSVFPLAPSSKSTSGGTAALGCLVKDYFPEPVTVSWNSGALTSGVHTFPAVLQSSGLYSLSSVVTVPSSSLGTQTYICNVNHKPSNTKVDKKVEPKSCDKTHTCPPCPAPEEYWGPMVFLFPPKPKDTLMISRTPEVTCVVVDVSDEDPEVKFNWYVDGVEVHNAKTKPREEQYNATYRVVSVLTVLHQDWLNGKEYKCKVSNKDLPAPIEKTISKAKGQPREPQVCTLPPSRDELTKNQVSLWCLVKGFYPSDIAVEWESNGQPENNYKTTPPVLDSDGSFFLYSKLTVDKSRWQQGNVFSCSVMHEALHNHYTQKSLSLSP
heavy 2: QDQLVQSGAEVKKPGASVKVSCKASGFNIKDTYIQWVRQAPGQGLEWMGRIDPLRKQTKYREKFEGRVTITADTSTNTAYMELSSLRSEDTAVYYCVRSGREFDYWGQGTLVTVSSASTKGPSVFPLAPSSKSTSGGTAALGCLVKDYFPEPVTVSWNSGALTSGVHTFPAVLQSSGLYSLSSVVTVPSSSLGTQTYICNVNHKPSNTKVDKKVEPKSCDKTHTCPPCPAPELLGGPSVFLFPPKPKDTLMISRTPEVTCVVVDVSHEEPEVKFNWYVDGVEVHNAKTKPREEQYNSTYRVVSVLTVLHQDWLNGKEYKCKVSNDALPKPIEETISKAKGQPREPQVYTLPPSRCELTKNQVSLSCAVKGFYPSDIAVEWESNGQPENNYKTTPPVLDSDGSFFLVSKLTVDKSRWQQGNVFSCSVMHEALHNHYTQKSLSLSP
light: DIQMTQSPSSLSASVGDRVTITCRASQDIHKYIAWYQQKPGQAPRLLIQYTSTLQPGVPSRFSGSGSGTDYTFTISSLQPEDIATYYCLQYEQLRTFGGGTKVEIKRTVAAPSVFIFPPSDEQLKSGTASVVCLLNNFYPREAKVQWKVDNALQSGNSQESVTEQDSKDSTYSLSSTLTLSKADYEKHKVYACEVTHQGLSSPVTKSFNRGEC
B2: H240-Kn033/H240-Hl033/L73-k0 (antibody, human IgG1, kappa)
heavy 1: not shown
heavy 2: not shown
light: B1 light
notes: Anti-epiregulin antibody; native IgG1 with only knobs-into-holes alterations
B3: H240-Kn199/H240-Hl068/L73-k0 (antibody, human IgG1, kappa)
heavy 1: B1 heavy 1 with E233L
heavy 2: B1 heavy 2
light: B1 light
B4: H240-Kn221/H240-Hl068/L73-k0 (antibody, human IgG1, kappa)
heavy 1: B1 heavy 1 with E233T
heavy 2: B1 heavy 2
light: B1 light
B5: H240-Kn217/H240-Hl068/L73-k0 (antibody, human IgG1, kappa)
heavy 1: B1 heavy 1 with E233D
heavy 2: B1 heavy 2
light: B1 light
B6: H240-Kn179/H240-Hl089/L73-k0 (antibody, human IgG1, kappa)
heavy 1: B1 heavy 1 with E233Y, E293K
heavy 2: B1 heavy 2 with G235T
light: B1 light
notes: Combination of E294R in the Kn chain and G236T in the Hl chain; also called H240-Kn179/H240-HI089/L73-k0
B7: H240-Kn180/H240-Hl089/L73-k0 (antibody, human IgG1, kappa)
heavy 1: B1 heavy 1 with E233Y, E293R
heavy 2: B1 heavy 2 with G235T
light: B1 light
notes: Combination of E294K in the Kn chain and G236T in the Hl chain; also called H240-Kn180/H240-HI089/L73-k0
B8: H240-Kn193/H240-Hl204/L73-k0 (antibody, human IgG1, kappa)
heavy 1: B1 heavy 1 with E233Y, Y234N, E293R
heavy 2: B1 heavy 2 with G235T, I331E
light: B1 light
notes: H240-Kn193 is H240-Kn120 with Y235N and E294R; also called H240-Kn193/H240-HI204/L73-k0
B9: H240-Kn192/H240-Hl204/L73-k0 (antibody, human IgG1, kappa)
heavy 1: B1 heavy 1 with E233Y, Y234N, E293K
heavy 2: B1 heavy 2 with G235T, I331E
light: B1 light
notes: H240-Kn192 is H240-Kn120 with Y235N and E294K; also called H240-Kn192/H240-HI204/L73-k0

Tests used:
FcγRIIIa V = FcγRIIIa V (human, UniProt P08637 17-208); experiment: SPR (Biacore), KD
FcγRIIIa V, sequence (P08637 17-208): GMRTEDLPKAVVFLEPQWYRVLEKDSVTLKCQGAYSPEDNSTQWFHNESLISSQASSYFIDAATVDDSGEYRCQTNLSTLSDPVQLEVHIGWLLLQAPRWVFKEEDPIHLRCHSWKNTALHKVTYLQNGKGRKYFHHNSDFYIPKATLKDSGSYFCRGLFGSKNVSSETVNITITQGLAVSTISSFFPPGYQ

FcγRIIIa F = FcγRIIIa F (human, UniProt P08637 17-208); experiment: SPR (Biacore), KD
FcγRIIIa F, sequence (P08637 17-208): as above

FcgRIIaR = target: T1, FcgRIIaR (human, UniProt P12318 34-217); experiment: SPR (Biacore); KD of H240-Kn033/H240-Hl033/L73-k0 divided by KD of the variant
T1 construct: extracellular domain; also called FcγRIIa R; FcγRIIa type R; not shown: His tag at the C terminus
T1 sequence (looked up): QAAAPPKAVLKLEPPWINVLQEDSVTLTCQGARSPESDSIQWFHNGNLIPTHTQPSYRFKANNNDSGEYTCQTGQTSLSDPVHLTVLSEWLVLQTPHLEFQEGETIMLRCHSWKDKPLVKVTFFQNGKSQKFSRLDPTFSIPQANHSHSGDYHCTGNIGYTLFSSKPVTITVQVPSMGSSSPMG
Experimental: (§1) Binding of the produced variants to FcgRIa, FcgRIIaR, FcgRIIaH, FcgRIIb, FcgRIIIaF, and FcgRIIIaV was measured according to the method of Reference Example 8.
(§2) Analysis of interaction between objective antibody and the FcγR was carried out using Biacore T100 (GE Healthcare), Biacore T200, Biacore A100, and Biacore 4000. HBS-EP+ (GE Healthcare) was used as the running buffer, and the measurement temperature was set to 25° C. Chips produced by immobilizing the antigen peptide by the amine coupling method to a Series S sensor Chip CM5 (GE Healthcare), chips produced by allowing preliminarily biotinylated antigen peptides to interact with and immobilize onto a Series S Sensor Chip SA (certified) (GE Healthcare), chips produced by immobilizing Protein L (ACTIGEN, BioVision) to Series S Sencor Chip CM5 (GE Healthcare), or chips produced by immobilizing Protein A/G (Thermo Scientific) to Series S Sencor Chip CM5 (GE Healthcare) were used. Antibodies of interest were captured onto these chips, and allowed to interact to each FcγR diluted with running buffer. To regenerate and repeatedly use the chip, the antibodies captured onto the chip were washed off by reacting 10 mM glycine-HCl, pH 1.5.

FcgRIIIaV = target: T2, FcgRIIIaV (human, UniProt P08637 17-208); experiment: as above
T2 construct: extracellular domain; also called FcγRIIIa V; not shown: His tag at the C terminus
T2 sequence (P08637 17-208 F176V limits assumed): as the sequence (P08637 17-208) above, with F160V counted along it
Experimental: as §1, §2

FcgRIIaH = target: T3, FcgRIIaH (human, UniProt P12318 34-217); experiment: as above
T3 construct: extracellular domain; also called FcγRIIa H; FcγRIIa type H; not shown: His tag at the C terminus
T3 sequence (looked up): T1 sequence (looked up) with R134H
Experimental: as §1, §2

FcgRIIb = target: T4, FcgRIIb (human, UniProt P31994 43-217); experiment: as above
T4 construct: extracellular domain; also called FcγRIIb; CD32B; not shown: His tag at the C terminus
T4 sequence (looked up): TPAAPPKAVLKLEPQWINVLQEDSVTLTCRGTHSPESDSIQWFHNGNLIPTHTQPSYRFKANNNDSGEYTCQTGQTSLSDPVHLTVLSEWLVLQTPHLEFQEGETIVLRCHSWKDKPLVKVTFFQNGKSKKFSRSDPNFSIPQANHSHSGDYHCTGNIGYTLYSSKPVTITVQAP
Experimental: as §1, §2

FcgRIIIaF = target: T5, FcgRIIIaF (human, UniProt P08637 17-208); experiment: as above
T5 construct: extracellular domain; also called FcγRIIIa F; not shown: His tag at the C terminus
T5 sequence (P08637 17-208): as the sequence (P08637 17-208) above
Experimental: as §1, §2

[1] = target: T6, FcgRIIIa V type extracellular domain, C-terminal His tag (human, UniProt P08637 17-208); experiment: SPR (Biacore); KD of H240-Kn120/H240-Hl068/L73-k0 divided by KD of the variant
T6 construct: extracellular domain; Soluble analyte in Biacore; also called FcγRIIIa V; not shown: His tag at the C terminus
T6 sequence (P08637 17-208 F176V): as the sequence (P08637 17-208) above, with F160V counted along it
Experimental: (§3) H240-Kn179/H240-H1089/L73-k0, H240-Kn180/H240-Hl089/L73-k0, H240-Kn192/H240-Hl204/L73-k0, and H240-Kn193/H240-Hl204/L73-k0 were prepared by combining each of H240-Kn192 and H240-Kn193 as an H chain, L73-k0 as the L chain, and H240-Hl089 and H240-Hl204 as the other H chain according to the method described in Reference Example 1. The variants described above were assessed for their binding to FcγR according to the method described in Reference Example 8.
as §2

[2] = target: T7, FcgRIIa H type extracellular domain, C-terminal His tag (human, UniProt P12318 34-217); experiment: as above
T7 construct: extracellular domain; Soluble analyte in Biacore; also called FcγRIIa H; FcγRIIa(H); not shown: His tag at the C terminus
T7 sequence (looked up): T1 sequence (looked up) with R134H
Experimental: as §3, §2

[3] = target: T8, FcgRIIa R type extracellular domain, C-terminal His tag (human, UniProt P12318 34-217); experiment: as above
T8 construct: extracellular domain; Soluble analyte in Biacore; also called FcγRIIa R; FcγRIIa(R); not shown: His tag at the C terminus
T8 sequence (looked up): T1 sequence (looked up)
Experimental: as §3, §2

[4] = target: T9, FcgRIIb extracellular domain, C-terminal His tag (human, UniProt P31994 43-217); experiment: as above
T9 construct: extracellular domain; Soluble analyte in Biacore; also called FcγRIIb; not shown: His tag at the C terminus
T9 sequence (looked up): T4 sequence (looked up)
Experimental: as §3, §2

[5] = target: T10, FcgRIIIa F type extracellular domain, C-terminal His tag (human, UniProt P08637 17-208); experiment: as above
T10 construct: extracellular domain; Soluble analyte in Biacore; also called FcγRIIIa F; not shown: His tag at the C terminus
T10 sequence (P08637 17-208): as the sequence (P08637 17-208) above
Experimental: as §3, §2

Binder	fold binding activity against H240-Kn033/H240-Hl033/L73-k0 (FcγRIIIa V) [fold]	fold binding activity against H240-Kn033/H240-Hl033/L73-k0 (FcγRIIIa F) [fold]	relative KD [1]	relative KD [2]	relative KD [3]	relative KD [4]	relative KD [5]	further results
B1	≥ 100	≥ 100	–	–	–	–	–	–
B2	–	–	–	–	–	–	–	fold 2aR (FcgRIIaR): 1 fold; fold 3aV (FcgRIIIaV): 1 fold; fold 2aH (FcgRIIaH): 1 fold; fold 2b (FcgRIIb): 1 fold; fold 3aF (FcgRIIIaF): 1 fold
B3	≥ 100	≥ 100	–	–	–	–	–	–
B4	≥ 100	≥ 100	–	–	–	–	–	–
B5	≥ 100	≥ 100	–	–	–	–	–	–
B6	–	–	0	0.9	1.1	0.4	0.1	–
B7	–	–	0	1.1	1.3	0.4	0.1	–
B8	–	–	0.2	1.2	1.3	0.5	0.2	–
B9	–	–	0.2	1	1.1	0.5	0.2	–
